As a reminder, the EC50 (read off the curve) is the midpoint of the concentration-response curve. What is called Kd is a measure of binding affinity in units of concentration. As usually defined, the koff is a measure of how fast the partners let go of each other. In general, kon refers to the second-order rate constant of association.

Experimental findings from patent US20240254205A1 (UNIVERSITY OF ROCHESTER, published 2024) are described below.

Assay [1] concerns the target T1, recombinant IBV NA protein B/Hong Kong/330/2001 (Victoria lineage) (influenza B virus B/Hong Kong/330/2001). Put plainly: avidity ELISA with urea, hMAb at 1 µg/ml. On the technique in general: An ELISA detects its analyte on a solid surface through an enzyme-linked reagent.
Assay [2] has as its target T2, NA of B/Lee/1940 on infected MDCK cells (influenza B virus B/Lee/1940, UniProt P03474 1-466).
T2 construct: whole, on cells
Put plainly: immunofluorescence on infected MDCK cells, hMAb at 1 µg/ml.

For assay [3], the target named is T1, recombinant IBV NA protein B/Hong ….
Assay [4] has as its target T2, NA of B/Lee/1940 on infected MDCK cells. The assay can be described thus: immunofluorescence (IFA) on infected MDCK cells.
Assay [5] has as its target T1, recombinant IBV NA protein B/Hong …. Put plainly: surface plasmon resonance, antibody on the chip, NA flowed over.
Assay [6] shares this target. This is another data set of the same source.

Where a chain is given by its changes, count along the chain named. Like-named read-outs stand apart in the source and are kept apart here. Where only a bound is given, the exact number is not on record here.

B1: 1086C12 (antibody, V domains shown)
VH: VQLVESGGGVVQPGRSLRLSCVASGFSLSTYGMLWVRQAPGKGLVWVALISYEEGSNKKYADSVKGRFTISRDNSRNTLYLQMSSLTSDDTGVYYCARDAGCDSVGYYPGRLWGQGTLVTVSS
VL: QSVLTQPPSASGTPGQTVTISCSGTSSNIGSNFVYWYQQLPGTAPKLLIFRNNQRPSGVPDRFSGSKSGTSASLAVSGLRSEDEAEYYCAAWDDSLSGHLVFGGGTKLTVL
Consider B1, for which the “binding activity maintained in 8 M urea” value in assay [1] was above 75%. In addition, the binding result in assay [2] is recorded as “binds”. In addition, the “EC50 (read off the curve)” value in assay [3] is around 0.05 µg/mL.

B2: 1092E10 (antibody, V domains shown)
VH: EVQLVESGGGSVKPGGSLRLSCAASGFTFTNSWMSWVRQAPGKGLEWVGRIKSKSDGGTTDYAAPVKGRFSISRDDSKSTLFLQMNSLKTEDTAVYYCSAAPFTESNGYKSWDYLYGMDVWGQGTTVTVSS
VL: SYELTQPPSVSVSPGQTATITCSGDKLGDKFASWYQQQPGQSPVLVIYQHTKRPSGIPERFSGSISGSTATLTISGTQAVDEADYYCQAWDSNSYVFGAGTKVTVL
notes: also called 1092E01
As to B2, in assay [1], the “binding activity maintained in 8 M urea” value was above 75%. In assay [2], the binding result was “binds”. For the same molecule, in assay [3], the “EC50 (read off the curve)” value is around 0.05 µg/mL.

B3: 1122C6 (antibody, V domains shown)
VH: QVQLQESGPGLVKPSETLSLTCTVSGGSISSYYWSWIRQPPGKAVEWIGYIFDGGSTDYNPSLKSRVAMSVDASENQFSLKLASVTAADTAVYYCARYRVSGNYYDTPWFDPWGQGLLVTVSS
VL: SYELTQPPSLSASPGQTARITCSGDALPKQDVYWYQQKPGQAPLLVIYKDTERPSGIPERFSGSRSGTTVTLIISGVQAEDEADYYCQSAASSYGYVVFGGGTKLTVL
As for B3, in assay [4], the binding result was “no binding (tested: 1 µg/ml)”.

B4: KPF2/1092D4 (antibody, V domains shown)
VH: EVQLLESGGQLVQPGGSLRLSCAVSGFTFSRYAMYWVRQAPGKGLEWVSIISGDGGVTFYADSVKGRFTISRDNSKNTLFLQMNSLRADDTAVYYCAKDNQDLDLWSGSYKGTFDDWGQGTLVTVSS
VL: NFMLTQPHSVSGSPGKTVSISCTRSSGIIASNHVQWYQQRPGSAPTTVIFEDNQRPSGVPDRFSGSIDSSSNSASLTISGLKTEDEADYYCQSYDSSRYWVFGGGTKLTVL
Consider B4, for which the “binding activity maintained in 8 M urea” value in assay [1] was above 75%. Also, in assay [5], the Kd is 0.1 nM. Moreover, in assay [2], the binding result is listed as “binds”. Besides, in assay [6], the equilibrium dissociation constant (Kd) came to 0.185 nM, the koff worked out at 4.86e-05 s⁻¹ and the kon is 264000 M⁻¹ s⁻¹. The “EC50 (read off the curve)” value in assay [3] was around 0.05 µg/mL.

B5: 1122C7 (antibody, V domains shown)
VH: B4 VH with R31S, A40S, F80Y, D89E, N100K, D116E
VL: B4 VL with H33Y
For the molecule B5, the “binding activity maintained in 8 M urea” value in assay [1] is above 75%. The binding result in assay [2] is “binds”.
